Tests used:
TbAS-A [1] = molecular target: T1, TbAS-A (Trypanosoma brucei, UniProt Q57WT9); assay: ninhydrin asparagine formation assay; format: biochemical
T1 construct: gene Tb07.27M11.260; full ORF in pET28a(+), 6-His-tagged, expressed in E. coli BL21DE3, Ni purified; predicted dimer (homology model)
T1 sequence (Q57WT9 1-351): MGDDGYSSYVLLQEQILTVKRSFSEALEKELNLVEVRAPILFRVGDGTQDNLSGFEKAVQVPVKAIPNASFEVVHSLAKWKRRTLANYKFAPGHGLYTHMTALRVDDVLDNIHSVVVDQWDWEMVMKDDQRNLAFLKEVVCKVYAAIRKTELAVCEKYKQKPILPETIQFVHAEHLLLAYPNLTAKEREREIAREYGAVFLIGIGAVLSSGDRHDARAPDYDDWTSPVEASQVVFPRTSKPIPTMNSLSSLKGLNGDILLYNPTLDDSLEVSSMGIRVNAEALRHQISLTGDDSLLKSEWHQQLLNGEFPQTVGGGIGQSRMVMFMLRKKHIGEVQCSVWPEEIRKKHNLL

TcAS-A [2] = molecular target: T2, TcAS-A (Trypanosoma cruzi, UniProt Q4CRM4); assay: ninhydrin asparagine formation assay, Km app method; format: biochemical
T2 construct: gene Tc00.1047053503625.10; full ORF in pET28a(+), 6-His-tagged, expressed in E. coli BL21DE3, Ni purified; predicted dimer (homology model)
T2 sequence (Q4CRM4 1-348): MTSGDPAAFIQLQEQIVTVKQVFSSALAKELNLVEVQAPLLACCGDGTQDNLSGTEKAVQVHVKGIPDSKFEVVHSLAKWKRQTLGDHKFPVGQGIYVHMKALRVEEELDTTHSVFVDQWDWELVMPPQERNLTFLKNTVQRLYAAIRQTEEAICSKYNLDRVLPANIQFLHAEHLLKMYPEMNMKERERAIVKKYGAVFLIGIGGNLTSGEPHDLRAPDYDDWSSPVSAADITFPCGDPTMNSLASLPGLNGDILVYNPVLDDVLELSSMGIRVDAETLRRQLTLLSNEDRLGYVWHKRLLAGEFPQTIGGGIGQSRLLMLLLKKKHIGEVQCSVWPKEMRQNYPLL

TcAS-A [3] = molecular target: T2, TcAS-A; assay: ninhydrin asparagine formation assay; format: biochemical
TbAS-A [4] = molecular target: T1, TbAS-A; assay: ninhydrin asparagine formation assay, Km app method; format: biochemical
purified protein = substrate: N; assay: purified protein; settings: excess aspartate (>20 mM) and ATP (>10 mM), ammonia in solution as nitrogen donor, 8.4 mM Mg2+, 85 mM Tris-HCl, 37 °C
[5] = substrate: NC(=O)CC[C@H](N)C(=O)O; assay: ninhydrin asparagine formation assay; format: biochemical, Trypanosoma brucei; settings: excess ATP and aspartate, glutamine as nitrogen donor, 8.4 mM Mg2+, 85 mM Tris-HCl, 37 °C
Text: (§1) ninhydrin asparagine formation assay on TbAS-A

[6] = substrate: N[C@@H](CC(=O)O)C(=O)O; assay: ninhydrin asparagine formation assay; format: biochemical, Trypanosoma brucei; settings: excess ATP (>10 mM) and ammonia (>50 mM), 8.4 mM Mg2+, 85 mM Tris-HCl, 37 °C
Text: as §1

[7] = substrate: Nc1ncnc2c1ncn2[C@@H]1O[C@H](COP(=O)(O)OP(=O)(O)OP(=O)(O)O)[C@@H](O)[C@H]1O; assay: ninhydrin asparagine formation assay; format: biochemical, Trypanosoma brucei; settings: excess aspartate (>20 mM) and ammonia (>50 mM), 8.4 mM Mg2+, 85 mM Tris-HCl, 37 °C
Text: as §1

[8] = substrate: NC(=O)CC[C@H](N)C(=O)O; assay: ninhydrin asparagine formation assay; format: biochemical, Trypanosoma cruzi; settings: excess ATP and aspartate, glutamine as nitrogen donor, 8.4 mM Mg2+, 85 mM Tris-HCl, 37 °C
Text: (§2) ninhydrin asparagine formation assay on TcAS-A

[9] = substrate: N[C@@H](CC(=O)O)C(=O)O; assay: ninhydrin asparagine formation assay; format: biochemical, Trypanosoma cruzi; settings: excess ATP (>10 mM) and ammonia (>50 mM), 8.4 mM Mg2+, 85 mM Tris-HCl, 37 °C
Text: as §2

[10] = substrate: Nc1ncnc2c1ncn2[C@@H]1O[C@H](COP(=O)(O)OP(=O)(O)OP(=O)(O)O)[C@@H](O)[C@H]1O; assay: ninhydrin asparagine formation assay; format: biochemical, Trypanosoma cruzi; settings: excess aspartate (>20 mM) and ammonia (>50 mM), 8.4 mM Mg2+, 85 mM Tris-HCl, 37 °C
Text: as §2

Question: Which IC50 (TbAS-A [1]) does the source give for `N[C@@H](CSS(=O)(=O)O)C(=O)O` [L-cysteine-S-sulfate] here?
Answer: Its IC50 is 126 µM.

Question: What about the Ki (TcAS-A [2]) of the same molecule?
Answer: Its Ki is 129 µM.

Question: What about the IC50 (TcAS-A [3]) of the same molecule?
Answer: The IC50 was 100 µM.

Question: And the Ki (TbAS-A [4])?
Answer: The Ki was 137 µM.

B1: TbAS-A (Trypanosoma brucei brucei TREU927) (protein)
chain: MGDDGYSSYVLLQEQILTVKRSFSEALEKELNLVEVRAPILFRVGDGTQDNLSGFEKAVQVPVKAIPNASFEVVHSLAKWKRRTLANYKFAPGHGLYTHMTALRVDDVLDNIHSVVVDQWDWEMVMKDDQRNLAFLKEVVCKVYAAIRKTELAVCEKYKQKPILPETIQFVHAEHLLLAYPNLTAKEREREIAREYGAVFLIGIGAVLSSGDRHDARAPDYDDWTSPVEASQVVFPRTSKPIPTMNSLSSLKGLNGDILLYNPTLDDSLEVSSMGIRVNAEALRHQISLTGDDSLLKSEWHQQLLNGEFPQTVGGGIGQSRMVMFMLRKKHIGEVQCSVWPEEIRKKHNLL
notes: full ORF in pET28a(+), 6-His-tagged, expressed in E. coli BL21DE3, Ni purified; predicted dimer (homology model)
Question: How did the Km (purified protein) turn out when B1 was run?
Answer: The Km was 5.55 ± 0.41 mM.

Question: And the kcat (purified protein)?
Answer: Its kcat is 5.69 s⁻¹.

Question: And the kcat/Km (purified protein)?
Answer: The kcat/Km was 1030 M⁻¹ s⁻¹.

Question: What about the Km [5] of the same molecule?
Answer: The Km was 8.20 ± 1.70 mM.

Question: And the kcat [5]?
Answer: The kcat was 5.58 ± 0.48 s⁻¹.

Question: And the kcat/Km [5]?
Answer: The kcat/Km was 680 M⁻¹ s⁻¹.

Question: And the Km [6]?
Answer: The Km was 5.39 ± 0.31 mM.

Question: And the kcat [6]?
Answer: Its kcat is 5.31 ± 0.11 s⁻¹.

Question: And the kcat/Km [6]?
Answer: Its kcat/Km is 985 M⁻¹ s⁻¹.

Question: And the Km [7]?
Answer: The Km was 1.80 ± 0.32 mM.

Question: And the kcat [7]?
Answer: Its kcat is 6.22 ± 0.38 s⁻¹.

Question: What about the kcat/Km [7] of the same molecule?
Answer: The kcat/Km was 3460 M⁻¹ s⁻¹.

B2: TcAS-A (Trypanosoma cruzi strain CL Brener) (protein)
chain: MTSGDPAAFIQLQEQIVTVKQVFSSALAKELNLVEVQAPLLACCGDGTQDNLSGTEKAVQVHVKGIPDSKFEVVHSLAKWKRQTLGDHKFPVGQGIYVHMKALRVEEELDTTHSVFVDQWDWELVMPPQERNLTFLKNTVQRLYAAIRQTEEAICSKYNLDRVLPANIQFLHAEHLLKMYPEMNMKERERAIVKKYGAVFLIGIGGNLTSGEPHDLRAPDYDDWSSPVSAADITFPCGDPTMNSLASLPGLNGDILVYNPVLDDVLELSSMGIRVDAETLRRQLTLLSNEDRLGYVWHKRLLAGEFPQTIGGGIGQSRLLMLLLKKKHIGEVQCSVWPKEMRQNYPLL
notes: as for B1
Question: With B2 as the molecule, how does the Km (purified protein) read?
Answer: The Km was 7.75 ± 1.55 mM.

Question: What about the kcat (purified protein) of the same molecule?
Answer: Its kcat is 2.45 s⁻¹.

Question: And the kcat/Km (purified protein)?
Answer: The kcat/Km was 316 M⁻¹ s⁻¹.

Question: And the Km [8]?
Answer: The Km was 15.33 ± 3.66 mM.

Question: What about the kcat [8] of the same molecule?
Answer: Its kcat is 3.38 ± 0.41 s⁻¹.

Question: What about the kcat/Km [8] of the same molecule?
Answer: Its kcat/Km is 220 M⁻¹ s⁻¹.

Question: What about the Km [9] of the same molecule?
Answer: Its Km is 6.45 ± 2.05 mM.

Question: And the kcat [9]?
Answer: The kcat was 2.41 ± 0.32 s⁻¹.

Question: What about the kcat/Km [9] of the same molecule?
Answer: The kcat/Km was 374 M⁻¹ s⁻¹.

Question: And the Km [10]?
Answer: The Km was 0.72 ± 0.01 mM.

Question: And the kcat [10]?
Answer: The kcat was 3.45 ± 0.02 s⁻¹.

Question: What about the kcat/Km [10] of the same molecule?
Answer: The kcat/Km was 4790 M⁻¹ s⁻¹.

Reference: paper PMC3854871, “Knockdown of Asparagine Synthetase A Renders Trypanosoma brucei Auxotrophic to Asparagine” (PLoS Neglected Tropical Diseases, 2013)
